Data on one molecule can be found in paper PMC11403483 (The Journal of Biological Chemistry, 2024).

One experiment deals with native PSG1 (human (endogenous in serum of pregnant …, UniProt P11464 35-419)). The experiment can be described thus: SPR.
Experiment [1] addresses recombinant PSG1 (pregnancy-specific glycoprotein 1) (human, UniProt P11464 35-419, complex N-linked glycans). The experiment can be described thus: SPR.

native PSG1 (human, sequence (P11464 35-419): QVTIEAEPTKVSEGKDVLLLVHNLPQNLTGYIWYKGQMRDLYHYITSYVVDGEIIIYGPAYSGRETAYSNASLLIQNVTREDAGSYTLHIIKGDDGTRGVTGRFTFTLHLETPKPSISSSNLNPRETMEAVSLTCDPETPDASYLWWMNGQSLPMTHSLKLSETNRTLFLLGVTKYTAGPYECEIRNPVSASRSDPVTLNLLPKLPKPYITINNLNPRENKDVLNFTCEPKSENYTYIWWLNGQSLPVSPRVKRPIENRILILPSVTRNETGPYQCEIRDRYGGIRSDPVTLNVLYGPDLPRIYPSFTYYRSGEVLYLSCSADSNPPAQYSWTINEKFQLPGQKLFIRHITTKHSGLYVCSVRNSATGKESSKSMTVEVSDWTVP
recombinant PSG1 (pregnancy-specific glycoprotein 1), sequence (P11464 35-419): as above

B1: recombinant human galectin 9 (natural protein, UniProt O00182-2 1-323, looked up)
chain: MAFSGSQAPYLSPAVPFSGTIQGGLQDGLQITVNGTVLSSSGTRFAVNFQTGFSGNDIAFHFNPRFEDGGYVVCNTRQNGSWGPEERKTHMPFQKGMPFDLCFLVQSSDFKVMVNGILFVQYFHRVPFHRVDTISVNGSVQLSYISFQPPGVWPANPAPITQTVIHTVQSAPGQMFSTPAIPPMMYPHPAYPMPFITTILGGLYPSKSILLSGTVLPSAQRFHINLCSGNHIAFHLNPRFDENAVVRNTQIDNSWGSEERSLPRKMPFVRGQSFSVWILCEAHCLKVAVDGQHLFEYYHRLRNLPTINRLEVGGDIQLTHVQT
For B1, in the experiment with native PSG1, binding was put at a Kd of 40.3 nM, the koff is 0.0016 s⁻¹ and the on-rate constant (kon) worked out at 39000 M⁻¹ s⁻¹. Further, in experiment [1], the equilibrium dissociation constant (Kd) came to 21.6 nM and the dissociation rate constant (koff) came out at 0.00156 s⁻¹.
